Results from article PMC2770460.

Target: recombinant full-length mammalian Tpr (6xHis-Tpr) (not stated (mammalian)) (UniProt P12270)
Test: ELISA; solid phase binding assay: Maxisorp microtiter plates coated with 25 ng of Tpr or C-Tpr; increasing concentrations of the soluble protein; bound protein detected with primary antibodies and horseradish peroxidase-conjugated secondary antibodies (TMB); apparent Kd from B = Bmax x Y/(Kd + Y); CRM1, NES and RanGTP at equimolar concentrations

Sequence of recombinant full-length mammalian Tpr (6xHis-Tpr) (not stated (mammalian)) (P12270 whole entry): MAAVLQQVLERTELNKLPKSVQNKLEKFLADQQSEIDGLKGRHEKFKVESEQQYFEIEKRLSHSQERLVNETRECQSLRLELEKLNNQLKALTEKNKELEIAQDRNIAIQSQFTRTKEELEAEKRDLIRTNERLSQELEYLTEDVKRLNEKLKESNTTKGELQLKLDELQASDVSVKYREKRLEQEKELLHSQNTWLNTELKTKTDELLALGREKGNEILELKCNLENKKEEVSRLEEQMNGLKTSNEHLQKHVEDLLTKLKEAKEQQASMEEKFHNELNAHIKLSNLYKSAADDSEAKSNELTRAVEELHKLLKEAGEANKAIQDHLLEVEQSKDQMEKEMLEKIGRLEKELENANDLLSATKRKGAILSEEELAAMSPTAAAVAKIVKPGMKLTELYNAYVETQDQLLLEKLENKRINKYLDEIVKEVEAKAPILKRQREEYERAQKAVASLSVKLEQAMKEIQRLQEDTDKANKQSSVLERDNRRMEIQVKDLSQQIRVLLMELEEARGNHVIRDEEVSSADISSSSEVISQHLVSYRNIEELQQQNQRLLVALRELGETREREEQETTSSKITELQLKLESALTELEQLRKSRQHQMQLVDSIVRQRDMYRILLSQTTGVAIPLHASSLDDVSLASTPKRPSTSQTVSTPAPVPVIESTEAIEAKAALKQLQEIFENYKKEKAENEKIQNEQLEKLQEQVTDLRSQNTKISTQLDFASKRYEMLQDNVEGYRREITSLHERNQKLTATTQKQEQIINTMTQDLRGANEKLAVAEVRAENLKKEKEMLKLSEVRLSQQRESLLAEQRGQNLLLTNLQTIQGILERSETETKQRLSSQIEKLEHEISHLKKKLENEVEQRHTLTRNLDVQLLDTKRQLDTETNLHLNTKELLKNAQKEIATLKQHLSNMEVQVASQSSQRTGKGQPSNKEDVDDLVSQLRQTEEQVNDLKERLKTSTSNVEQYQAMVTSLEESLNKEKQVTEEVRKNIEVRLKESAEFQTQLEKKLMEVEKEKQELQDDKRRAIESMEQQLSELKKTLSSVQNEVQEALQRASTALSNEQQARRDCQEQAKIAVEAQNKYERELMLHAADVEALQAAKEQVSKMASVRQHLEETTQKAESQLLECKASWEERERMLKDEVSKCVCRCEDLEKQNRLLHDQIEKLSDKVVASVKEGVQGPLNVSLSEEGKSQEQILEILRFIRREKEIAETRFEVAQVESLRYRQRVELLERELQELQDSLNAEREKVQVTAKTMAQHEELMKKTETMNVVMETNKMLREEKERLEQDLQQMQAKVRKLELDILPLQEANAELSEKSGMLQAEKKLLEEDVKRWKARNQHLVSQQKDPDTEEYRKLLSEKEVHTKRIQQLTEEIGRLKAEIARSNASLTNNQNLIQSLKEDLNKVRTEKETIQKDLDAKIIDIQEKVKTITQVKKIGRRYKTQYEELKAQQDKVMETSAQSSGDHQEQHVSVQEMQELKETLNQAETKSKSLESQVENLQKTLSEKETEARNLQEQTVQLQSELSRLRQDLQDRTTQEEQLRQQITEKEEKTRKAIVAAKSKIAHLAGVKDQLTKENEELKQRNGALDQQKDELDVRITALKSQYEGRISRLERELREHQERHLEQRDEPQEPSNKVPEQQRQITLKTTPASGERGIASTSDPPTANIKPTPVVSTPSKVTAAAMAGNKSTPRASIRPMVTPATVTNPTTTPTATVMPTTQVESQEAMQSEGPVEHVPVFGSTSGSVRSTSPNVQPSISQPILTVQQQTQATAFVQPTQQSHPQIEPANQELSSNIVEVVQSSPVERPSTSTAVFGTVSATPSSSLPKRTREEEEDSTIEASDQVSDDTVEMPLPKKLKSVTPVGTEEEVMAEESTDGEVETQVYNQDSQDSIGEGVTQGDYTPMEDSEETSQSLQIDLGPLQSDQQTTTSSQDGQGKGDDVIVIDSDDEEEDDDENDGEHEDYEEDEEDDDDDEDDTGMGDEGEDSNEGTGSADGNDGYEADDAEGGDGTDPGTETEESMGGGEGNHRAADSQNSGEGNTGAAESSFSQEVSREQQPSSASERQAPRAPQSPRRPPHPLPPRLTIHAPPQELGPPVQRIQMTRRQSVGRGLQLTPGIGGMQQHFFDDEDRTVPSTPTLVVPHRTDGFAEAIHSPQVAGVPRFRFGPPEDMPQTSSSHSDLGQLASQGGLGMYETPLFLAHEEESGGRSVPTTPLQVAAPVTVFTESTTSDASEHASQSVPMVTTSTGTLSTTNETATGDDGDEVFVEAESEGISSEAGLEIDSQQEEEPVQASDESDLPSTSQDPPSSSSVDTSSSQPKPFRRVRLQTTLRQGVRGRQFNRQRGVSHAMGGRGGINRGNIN

Kd: 21.5 nM
Substance: His-importin α (from UniProt P52292 1-529) (natural protein)
